Results: ChEMBL document CHEMBL1139252, “Inhibition of purple acid phosphatase with alpha-alkoxynaphthylmethylphosphonic acids” (Bioorg Med Chem Lett, 2009)

Assays:
Conditions in all cases: Phaseolus vulgaris
[1] = substrate: CCCCCCCCCCOC(c1cccc2ccccc12)P(=O)(O)O; experiment: (§1) Activity of red kidney bean PAP at pH 6.2
[2] = substrate: CCCCCCCCOC(c1cccc2ccccc12)P(=O)(O)O; experiment: as §1
[3] = substrate: CCCCCCOC(c1cccc2ccccc12)P(=O)(O)O; experiment: as §1
[4] = substrate: O=P(O)(O)C(O)c1cccc2ccccc12; experiment: as §1
[5] = substrate: O=P(O)(O)Cc1cccc2ccccc12; experiment: as §1

B1: Fe(3+)-Zn(2+) purple acid phosphatase (Phaseolus vulgaris), P80366 (protein)
chain: MGVVKGLLALALVLNVVVVSNGGKSSNFVRKTNKNRDMPLDSDVFRVPPGYNAPQQVHITQGDLVGRAMIISWVTMDEPGSSAVRYWSEKNGRKRIAKGKMSTYRFFNYSSGFIHHTTIRKLKYNTKYYYEVGLRNTTRRFSFITPPQTGLDVPYTFGLIGDLGQSFDSNTTLSHYELSPKKGQTVLFVGDLSYADRYPNHDNVRWDTWGRFTERSVAYQPWIWTAGNHEIEFAPEINETEPFKPFSYRYHVPYEASQSTSPFWYSIKRASAHIIVLSSYSAYGRGTPQYTWLKKELRKVKRSETPWLIVLMHSPLYNSYNHHFMEGEAMRTKFEAWFVKYKVDVVFAGHVHAYERSERVSNIAYKITNGLCTPVKDQSAPVYITIGDAGNYGVIDSNMIQPQPEYSAFREASFGHGMFDIKNRTHAHFSWNRNQDGVAVEADSVWFFNRHWYPVDDST
Km [1]: 3.1 mM
Km [2]: 3.41 mM
Km [3]: 4.28 mM
Km [4]: 5.31 mM
Km [5]: 5.78 mM
